Reference: the supplement of paper PMC9170038

Tested on: MS2 coat protein
Experiment: apparent KD of MS2 coat protein; higher = weaker reporter binding
Settings: Eterna round: R107
Experimental: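 RNA-MaP round R107: designed RNA switches with theophylline, tryptophan, arginine or FMN aptamers are transcribed on-chip within common flanks. They are titrated with SNAP-549-labelled MS2 coat protein in RNA-MaP buffer (100 mM Tris pH 7.5, 80 mM KCl, 4 mM MgCl2), without ligand or with the indicated ligand. Median apparent KD per design.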

[1] = input ligand: theophylline 20 uM
[2] = input ligand: theophylline 2 mM
[3] = input ligand: tryptophan 2.4 mM

Sequence	apparent KD of MS2 coat protein (input ligand: arginine 13.2 mM)	apparent KD of MS2 coat protein (input ligand: none)	apparent KD of MS2 coat protein [1]	apparent KD of MS2 coat protein [2]	apparent KD of MS2 coat protein [3]
GCUAGGUCUACGGCCGCCACUAGACGUGGGUAAGACAUGAGGAUCACCCAUGUACUACGGGCGAAUAGGACCGGGUAGACCUAGC [SSTB NP+V+V2 #14 Same Structure]	173 nM	321 nM	499 nM	668 nM	39.1 nM
UCAUGAGGAUCACCCAUGUGGCGUCUUGAUACCAGACGAGAAGUAGUCCCUUGGCAGCAAAUACAUGAGGAUCACCCAUGUAGGA [cccmullin2]	24.5 nM		38.2 nM		43 nM
AUACAUGAGGAUCACCCAUGUAUAGAUGAAGGAGCGACCAGAGGGUCAGGUAGGUCGCAUCACAUGAGGAUCACCCAUGUACUUA [DOUBLE!!! :-D #9]	27.1 nM	42.1 nM	43.7 nM	42.7 nM	41.5 nM
GGGCCCGGGCGCGAGCCCGGGCCCAUUGAUACCAGUGAAAAUAUACGCCCUUGGCAGCGAAUCCUAACAUGAGGAUCACCCAUGU [5.A]	37.7 nM	37.2 nM	65.7 nM	70.9 nM	33.4 nM
UGUAACAUGAGGAUCACCCAUGUGAGUGAUACCAGAUUAGUAUUAGUCCCUUGGCAGCACAUUGGGCGAGUGUAUAGUCUAUGCG [Same State - Theophylline A (Freestyle 12)]	106 nM		197 nM		135 nM
GGCACAUAGUCGGCCGCCACUAGAAUAAGAAGGGAAAACAUGAGGAUCACCCAUGUAAAAGGGACUAGGACCGGGACUAUGUGCC [Shrew]	14.5 nM		18.2 nM	17 nM	
CGUGGUUGAGAUGGGCCUCUGAUAAGUCUGCGAGGACCGGUACGGCCGCCACUCGAGGACAUGAGGAUCACCCAUGUACUUCGCG [Vequar]	41.1 nM	30.8 nM	139 nM	50.5 nM	19.2 nM
AGUAAUCUAACAGAUACCAGACGGUAUAUAACAUGAGGAUCACCCAUGUCUUGGGUGUACGUCCCUUGGCAGCUGAAAAUGAUAA [JR_SSTheophyB_Sub001]	157 nM		551 nM		756 nM
UGAUCCUACAGAGAUACCAGUGCCACUGAGUGACCAGACACAUGAGGAUCACCCAUGUAACACCCUUGGCAGCUCAACUAGAGGG [Same State Theophylline B GF18]	16.8 nM		22.3 nM		19.7 nM
UAACAUGAGGAUCACCCAUGUAUAGUCGAUACCAGCUCAAGGAAGAGCCCUUGGCAGCGACACUGCCAAGCAUGGGUCAUGGCAG [(Ms2)-(Theo)-(T)'-(M)'-(T)''_Design5]	20.7 nM		31.9 nM		19.5 nM
GGGCCCGGGCGCGAGCCCGGGCCCAUUGAUACCAGUGAUAUAUAGCGCCCUUGGCAGCGAAUCCUAACAUGAGGAUCACCCAUGU [5.I]	23.7 nM	38.8 nM	65.2 nM	53.2 nM	42.7 nM
ACAUGAGGAUCACCCAUGUUAAGCAGGGUGCGAGGACCGGUACGGCCGCCACUCGGACAUUAUUACGAGUGAAUGGUAACGAUGU [#14 Exclusion Tryptophan A]	23.3 nM	18.2 nM	29.8 nM	24.5 nM	21.7 nM
UGAGUUAGACAAAAGUCUAGCUCUGGUGAAGGAGCGUCCGAAAGGACAGGUAGGUCGCACCACCUGAGGAUCACCCGGGUUCCUA [ArgAS 13 #OpenEnded #AlternativeMS2]	360 nM	167 nM	544 nM	991 nM	115 nM
GGUGGCGUGACGGAUACCAGCCACCGCCGCAAGGCCACAUGAGGAUCACCCAUGUUGGGUGGCCCUUGGCAGCUGUCGUGCGGCG [#1 Same State - Theophylline B Attempt #21 (HarryS)]	121 nM		464 nM		378 nM
AAACUAACGAGAGGAAACCUCGAGGGUGAUACCAGCACAUAAGGGUGCCCUUGGCAGCACCGACGUACAUGAGGAUCACCCAUGU [Gexegees]	56.6 nM		154 nM		169 nM
GGGCGCUAUCCCGCGAGGGAUAGCGUUCUUCGAGGACCGGUACGGCCGCCACUCGAACGAGUGGUGACAUGAGGAUCACCCAUGU [Paa]	35.6 nM	63.6 nM	75 nM	81.1 nM	58.7 nM
GCCGGACUUUCGGCCGCCACUGAGAGAGUCGUGUGAACAUGAGGAUCACCCAUGUAAUAUAUAUACAGGACCGGGAGGGUUCGGC [4.S]	10.5 nM	12.2 nM	18.7 nM	11.9 nM	12 nM
AGCCCUGUACUAGAUACCAGCUACAUGAGGAUCACCCAUGUGCGUCAAGACUGACUGUGUAGCCCUUGGCAGCUACUCGCAUGUA [Exclusion - Theophylline B (Freestyle 3)]	13.7 nM		23.1 nM		14.9 nM
GCCUAGCAUCGAAGGAGCGCUGGUGAAACUGACUAAUAUACAUGAGGAUCACCCAUGUGCUAGCAGGUAGGUCGCGAUGCUAGGC [SSAB NP+V+V2 #11]	20.4 nM	21.7 nM	27.2 nM	25.5 nM	21.1 nM

Sequence	apparent KD of MS2 coat protein (input ligand: arginine 13.2 mM)	apparent KD of MS2 coat protein (input ligand: none)	apparent KD of MS2 coat protein [1]	apparent KD of MS2 coat protein [2]	apparent KD of MS2 coat protein [3]
AUCGCACCUGGUGAUACCAGCGUUUGCUCGUGACAUGAGGAUCACCCAUGUGGCCAGUGAUGCCCUUGGCAGCAUGGUCGGUGCA [Same State - Theophylline B (Freestyle 26)]	61.7 nM		376 nM		296 nM
AGCUCAGAGAGUGAUACCAGACUACAUGAGGAUCACCCAUGUUACUUUUAAAUAUCAUGAGUCCCUUGGCAGCACAAGAAGAGCA [JR_ExcTheophyB_Sub016]	40.1 nM		117 nM		73.2 nM
AAUACCGGUCCUCGAAGGUGAUCCUCAUAACGAGGACCGGUACGGCCGCCACUCGAUAACAUGAGGAUCACCCAUGUAAUAAUAA [|T'-M'-Trp-Ms2|_Design6]	56.1 nM		175 nM	235 nM	
GGGCUGUGACCAGGAAAUGGUCACAGCCCACGAGGACCGGUACGGCCGCCACUCGAAAGUACAUGAGGAUCACCCAUGUCGGUGG [#1 Same State - Tryptophan A Attempt #8 (HarryS)]	25.9 nM	34.1 nM	30.6 nM	37.9 nM	50.9 nM
ACAUGAGGAUCACCCAUGUAUUCAUCAGAAGGAGCGUGGAAUAACACAGGUAGGUCGCUGAUUAUUUGUUAAAUAAAUUCGUGUA [JR_Nu_SSArginiA_Sub023]	19.3 nM	16.1 nM	19.1 nM	16 nM	16.4 nM
GGUCGCCUACAUGGGUAGGCGAUUUUGGAAGGAGCGAGCGAGAGCUCAGGUAGGUCGCCAGCACAUGAGGAUCACCCAUGUUUUU [SSArg-A #25 Weakened 1st state]	20.8 nM	16.1 nM	20.9 nM	21.8 nM	18.7 nM
GAAUAAGAAUCGGCCGCCACUCACAUGAGGAUCACCCAUGUACAUGAGGAACAUGAAAAUCACCCGAGGACCGGGAUAUAUGUUC [Excluion - Tryptophan B #1]	31.1 nM		67.4 nM	71.3 nM	
CUCCCGUGAGCGGCCGCCACUGGAGGCCUCGCGCGACAUGAGGAUCACCCAUGUUGGCCCGGCCUCAGGACCGGGUUCGCGUGAG [Same State - Tryptophan B Attempt #6 (HarryS)]	7.47 nM	9.18 nM	17.4 nM	12.7 nM	8.4 nM
UGGUAGGUAGGAAGGAGCGCAUACUUCACAUGAGGAUCACCCAUGUCGAGACGUGAGUCAGUGCAGGUAGGUCGCCUAGUUAUGA [Same State - Arginine B (Freestyle 23)]	30.4 nM	36.4 nM	36.1 nM	37.6 nM	30.3 nM
CUACAUUUGUAGAAACCGGUCAACAAUAAUCGAGGACCGGUACGGCCGCCACUCGAUGUAAAAUAAACAUGAGGAUCACCCAUGU [Tryptophan A 12]	13.5 nM		20.6 nM	20 nM	
ACCUCACUCUCUGAUACCAGCUAAUAACAUGAGGAUCACCCAUGUCAGACUUGUAUUGAUAGCCCUUGGCAGCAGAGGUAACUGC [Theo B Ex t2]	9.42 nM		11.9 nM		10.6 nM
ACAUGAGGAUCACCCAUGUUCCUCAUUGAUACCAGUGAAUUUAGACGCCCUUGGCAGCGAGUUUUUUUAGAAGAAGUUUUUUUUU [6.F]	158 nM		659 nM		929 nM
AAACGUUGCUCAGAUACCAGACAUGAGGAUCACCCAUGUACCAAGGUAAAGAAAUAACGUGUCCCUUGGCAGCUGAGCAACGAAA [MAT - Exclusion Theophlline B - Mod of Eli - D11]	13.8 nM		13.8 nM		11.1 nM
GAUGAUAUUGCAGAUACCAGACACAUGAGGAUCACCCAUGUCGCUGAGUUGCUGGAUCGUGUCCCUUGGCAGCUGCGAUAUCAUC [Belgium]	18.3 nM		38.5 nM		19.7 nM
CGGUCGGUCGGCCGGUGAUUAUGGGAUGAAGGAGCGUGGGAAGCUACAGGUAGGUCGCAUCCGAAACACGAGGAUCACCCGUGUU [SSArg A #25Alt-Ms2 Mod]	26.5 nM	24.3 nM	38.3 nM	37.4 nM	28.4 nM
CGCAACAUGAGGAUCACCCAUGUAAUGACGCGAGGACCGGUACGGCCGCCACUCGCCUGGCAGUGAGCGCAUGCGGCCUGGGUAU [Exclusion Tryp A GF8]	10.6 nM		16.5 nM	14.3 nM	
ACAUGAGGAUCACCCAUGUACAUGAGGGAAGGAGCGGUACAUGAGCCAGGUAGGUCGCCCAUGAGCAUCAGGCAUGUACAUCAGC [kokmmullin]	47.6 nM	99.5 nM	97.3 nM	105 nM	56.6 nM
AUAACAUGAGGAUCACCCAUGUAUUGGUAACGAGGACCGGUACGGCCGCCACUCGAAUUUUGGUGGUAUAAUAUAUAUAUGAUUA [JR_SSTryptoA_Sub016]	17.4 nM		25.4 nM	18.8 nM	
